Results reported in patent US20160185832A1 (University of Pennsylvania, published 2016).

Experiments:
[1] = target: T1, pure, pre-polymerized, taxol-stabilized microtubules of bovine tubulin (Cytoskeleton) (bovine, UniProt P81947 1-451; Q6B856 1-445, limits assumed); assay: in vitro microtubule co-sedimentation, percent of construct in the microtubule pellet (FIG. 4D)
T1 construct: Polymer of alpha/beta tubulin dimers, polymerized with GTP and stabilized with 10 µM taxol; also called MT; MTs
Method: Crude TNT T7 reaction products were diluted 1:1 in BRB80 supplemented with 1 mM GTP and 10 μM taxol. The diluted products were then incubated at 30° C. for 30 minutes in either the presence or absence of pure, pre-polymerized microtubules. Reactions were then centrifuged through a 40% sucrose cushion at 48,000×g for 30 minutes, the supernatant was collected, and the pellet washed once with warm BRB80 and resuspended in 1×SDS PAGE sample buffer. Both fractions were subjected to SDS-PAGE and transferred to nitrocellulose. The presence of tubulin in the pellets was confirmed by Ponceau staining, and GFP-tagged CEP290 constructs were detected by immunoblotting.

[2] = target: microtubule network of cultured human cells (hTERT-RPE1, 293T) (human, UniProt P68363 1-451; P07437 1-444); assay: cell-based or functional assay
Chain of microtubule network of cultured human cells (hTERT-RPE1, 293T) (P68363 whole entry, chain 1 of 2): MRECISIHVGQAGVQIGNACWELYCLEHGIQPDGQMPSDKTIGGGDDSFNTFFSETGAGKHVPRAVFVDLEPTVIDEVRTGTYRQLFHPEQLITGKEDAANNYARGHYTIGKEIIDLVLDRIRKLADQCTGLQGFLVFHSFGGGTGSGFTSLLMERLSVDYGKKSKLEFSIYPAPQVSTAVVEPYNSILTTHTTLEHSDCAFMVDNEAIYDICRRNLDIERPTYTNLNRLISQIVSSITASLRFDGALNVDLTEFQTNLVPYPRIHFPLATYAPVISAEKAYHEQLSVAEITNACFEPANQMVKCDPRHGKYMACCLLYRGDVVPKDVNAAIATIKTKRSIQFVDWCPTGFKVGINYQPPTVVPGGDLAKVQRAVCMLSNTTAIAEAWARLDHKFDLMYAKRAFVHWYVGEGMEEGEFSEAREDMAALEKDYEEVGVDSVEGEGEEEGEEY
Chain of microtubule network of cultured human cells (hTERT-RPE1, 293T) (P07437 whole entry, chain 2 of 2): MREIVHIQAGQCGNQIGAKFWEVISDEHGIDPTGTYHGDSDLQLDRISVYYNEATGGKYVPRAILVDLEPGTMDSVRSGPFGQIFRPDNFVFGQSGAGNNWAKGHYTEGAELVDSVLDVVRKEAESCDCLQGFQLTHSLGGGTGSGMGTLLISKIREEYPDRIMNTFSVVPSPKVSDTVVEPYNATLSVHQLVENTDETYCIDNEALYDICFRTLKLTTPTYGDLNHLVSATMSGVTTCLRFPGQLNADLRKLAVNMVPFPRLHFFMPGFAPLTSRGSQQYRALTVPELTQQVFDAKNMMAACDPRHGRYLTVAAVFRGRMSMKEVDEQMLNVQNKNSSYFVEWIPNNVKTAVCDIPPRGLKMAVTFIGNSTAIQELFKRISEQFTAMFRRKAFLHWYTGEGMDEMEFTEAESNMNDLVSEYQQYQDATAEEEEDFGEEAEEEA

T1 sequence (P81947 whole entry, chain 1 of 2): as the sequence (P68363 whole entry, chain 1 of 2) above
T1 sequence (Q6B856 whole entry, chain 2 of 2): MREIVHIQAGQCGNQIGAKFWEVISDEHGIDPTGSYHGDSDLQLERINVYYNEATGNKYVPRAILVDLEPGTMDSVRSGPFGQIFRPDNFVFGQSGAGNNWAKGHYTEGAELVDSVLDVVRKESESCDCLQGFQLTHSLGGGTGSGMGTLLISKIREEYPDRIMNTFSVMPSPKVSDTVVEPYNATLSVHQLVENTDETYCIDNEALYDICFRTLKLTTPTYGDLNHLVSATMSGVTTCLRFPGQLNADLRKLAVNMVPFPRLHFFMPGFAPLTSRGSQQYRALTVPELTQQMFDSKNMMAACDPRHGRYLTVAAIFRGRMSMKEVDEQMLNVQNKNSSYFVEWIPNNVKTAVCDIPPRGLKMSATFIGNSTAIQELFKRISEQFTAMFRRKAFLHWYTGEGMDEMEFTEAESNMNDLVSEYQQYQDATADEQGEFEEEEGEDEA

Row | percent associated with microtubules [1] [%] | percent of transfected cells with increased microtubule acetylation and bundling [2] [%] | percent of transfected hTERT-RPE1 cells with a fibrillar localization pattern [2] [%] | Binder
1 | ~100 | ~75 |  | GFP fusion of CEP290 aa 1695-1966 (region M) (other, Also a construct without both termini; also called CEP290 region M alone; truncation M (GFP fusion); not shown: N-terminal GFP tag from pcDNA-DEST53 (Gateway)) DQSQKESQCLKSELQAQKEANSRAPTTTMRNLVERLKSQLALKEKQQKALSRALLELRAEMTAAAEERIISATSQKEAHLNVQQIVDRHTRELKTQVEDLNENLLKLKEALKTSKNRENSLTDNLNDLNNELQKKQKAYNKILREKEEIDQENDELKRQIKRLTSGLQGKPLTDNKQSLIEELQRKVKKLENQLEGKVEEVDLKPMKEKNAKEELIRWEEGKKWQAKIEGIRNKLKEKEGEVFTLTKQLNTLKDLFAKADKEKLTLQRKLKT
2 | < 50 | ~40 | ~20 | GFP fusion of CEP290 aa 580-2479 (other, The text says only 'lacking the N-terminus'; also called truncation lacking the N-terminus; C-terminal fragment of CEP290 (aa 580 to 2479); not shown: N-terminal GFP tag from pcDNA-DEST53 (Gateway)) TENISQGDRISERKLDLLSLKNMSEAQSKNEFLSRELIEKERDLERSRTVIAKFQNKLKELVEENKQLEEGMKEILQAIKEMQKDPDVKGGETSLIIPSLERLVNAIESKNAEGIFDASLHLKAQVDQLTGRNEELRQELRESRKEAINYSQQLAKANLKIDHLEKETSLLRQSEGSNVVFKGIDLPDGIAPSSASIINSQNEYLIHLLQELENKEKKLKNLEDSLEDYNRKFAVIRHQQSLLYKEYLSEKETWKTESKTIKEEKRKLEDQVQQDAIKVKEYNNLLNALQMDSDEMKKILAENSRKITVLQVNEKSLIRQYTTLVELERQLRKENEKQKNELLSMEAEVCEKIGCLQRFKEMAIFKIAALQKVVDNSVSLSELELANKQYNELTAKYRDILQKDNMLVQRTSNLEHLECENISLKEQVESINKELEITKEKLHTIEQAWEQETKLGNESSMDKAKKSITNSDIVSISKKITMLEMKELNERQRAEHCQKMYEHLRTSLKQMEERNFELETKFAELTKINLDAQKVEQMLRDELADSVSKAVSDADRQRILELEKNEMELKVEVSKLREISDIARRQVEILNAQQQSRDKEVESLRMQLLDYQAQSDEKSLIAKLHQHNVSLQLSEATALGKLESITSKLQKMEAYNLRLEQKLDEKEQALYYARLEGRNRAKHLRQTIQSLRRQFSGALPLAQQEKFSKTMIQLQNDKLKIMQEMKNSQQEHRNMENKTLEMELKLKGLEELISTLKDTKGAQKVINWHMKIEELRLQELKLNRELVKDKEEIKYLNNIISEYERTISSLEEEIVQQNKFHEERQMAWDQREVDLERQLDIFDRQQNEILNAAQKFEEATGSIPDPSLPLPNQLEIALRKIKENIRIILETRATCKSLEEKLKEKESALRLAEQNILSRDKVINELRLRLPATAEREKLIAELGRKEMEPKSHHTLKIAHQTIANMQARLNQKEEVLKKYQRLLEKAREEQREIVKKHEEDLHILHHRLELQADSSLNKFKQTAWDLMKQSPTPVPTNKHFIRLAEMEQTVAEQDDSLSSLLVKLKKVSQDLERQREITELKVKEFENIKLQLQENHEDEVKKVKAEVEDLKYLLDQSQKESQCLKSELQAQKEANSRAPTTTMRNLVERLKSQLALKEKQQKALSRALLELRAEMTAAAEERIISATSQKEAHLNVQQIVDRHTRELKTQVEDLNENLLKLKEALKTSKNRENSLTDNLNDLNNELQKKQKAYNKILREKEEIDQENDELKRQIKRLTSGLQGKPLTDNKQSLIEELQRKVKKLENQLEGKVEEVDLKPMKEKNAKEELIRWEEGKKWQAKIEGIRNKLKEKEGEVFTLTKQLNTLKDLFAKADKEKLTLQRKLKTTGMTVDQVLGIRALESEKELEELKKRNLDLENDILYMRAHQALPRDSVVEDLHLQNRYLQEKLHALEKQFSKDTYSKPSISGIESDDHCQREQELQKENLKLSSENIELKFQLEQANKDLPRLKNQVRDLKEMCEFLKKEKAEVQRKLGHVRGSGRSGKTIPELEKTIGLMKKVVEKVQRENEQLKKASGILTSEKMANIEQENEKLKAELEKLKAHLGHQLSMHYESKTKGTEKIIAENERLRKELKKETDAAEKLRIAKNNLEILNEKMTVQLEETGKRLQFAESRGPQLEGADSKSWKSIVVTRMYETKLKELETDIAKKNQSITDLKQLVKEATEREQKVNKYNEDLEQQIKILKHVPEGAETEQGLKRELQVLRLANHQLDKEKAELIHQIEANKDQSGAESTIPDADQLKEKIKDLETQLKMSDLEKQHLKEEIKKLKKELENFDPSFFEEIEDLKYNYKEEVKKNILLEEKVKKLSEQLGVELTSPVAASEEFEDEEESPVNFPIY
3 | ~100 | ~75 | ~80 | GFP fusion of CEP290 aa 580-1966 (other, The text says only 'lacking both termini'; also called truncation lacking both termini; construct lacking both the N- and C-termini; not shown: N-terminal GFP tag from pcDNA-DEST53 (Gateway)) TENISQGDRISERKLDLLSLKNMSEAQSKNEFLSRELIEKERDLERSRTVIAKFQNKLKELVEENKQLEEGMKEILQAIKEMQKDPDVKGGETSLIIPSLERLVNAIESKNAEGIFDASLHLKAQVDQLTGRNEELRQELRESRKEAINYSQQLAKANLKIDHLEKETSLLRQSEGSNVVFKGIDLPDGIAPSSASIINSQNEYLIHLLQELENKEKKLKNLEDSLEDYNRKFAVIRHQQSLLYKEYLSEKETWKTESKTIKEEKRKLEDQVQQDAIKVKEYNNLLNALQMDSDEMKKILAENSRKITVLQVNEKSLIRQYTTLVELERQLRKENEKQKNELLSMEAEVCEKIGCLQRFKEMAIFKIAALQKVVDNSVSLSELELANKQYNELTAKYRDILQKDNMLVQRTSNLEHLECENISLKEQVESINKELEITKEKLHTIEQAWEQETKLGNESSMDKAKKSITNSDIVSISKKITMLEMKELNERQRAEHCQKMYEHLRTSLKQMEERNFELETKFAELTKINLDAQKVEQMLRDELADSVSKAVSDADRQRILELEKNEMELKVEVSKLREISDIARRQVEILNAQQQSRDKEVESLRMQLLDYQAQSDEKSLIAKLHQHNVSLQLSEATALGKLESITSKLQKMEAYNLRLEQKLDEKEQALYYARLEGRNRAKHLRQTIQSLRRQFSGALPLAQQEKFSKTMIQLQNDKLKIMQEMKNSQQEHRNMENKTLEMELKLKGLEELISTLKDTKGAQKVINWHMKIEELRLQELKLNRELVKDKEEIKYLNNIISEYERTISSLEEEIVQQNKFHEERQMAWDQREVDLERQLDIFDRQQNEILNAAQKFEEATGSIPDPSLPLPNQLEIALRKIKENIRIILETRATCKSLEEKLKEKESALRLAEQNILSRDKVINELRLRLPATAEREKLIAELGRKEMEPKSHHTLKIAHQTIANMQARLNQKEEVLKKYQRLLEKAREEQREIVKKHEEDLHILHHRLELQADSSLNKFKQTAWDLMKQSPTPVPTNKHFIRLAEMEQTVAEQDDSLSSLLVKLKKVSQDLERQREITELKVKEFENIKLQLQENHEDEVKKVKAEVEDLKYLLDQSQKESQCLKSELQAQKEANSRAPTTTMRNLVERLKSQLALKEKQQKALSRALLELRAEMTAAAEERIISATSQKEAHLNVQQIVDRHTRELKTQVEDLNENLLKLKEALKTSKNRENSLTDNLNDLNNELQKKQKAYNKILREKEEIDQENDELKRQIKRLTSGLQGKPLTDNKQSLIEELQRKVKKLENQLEGKVEEVDLKPMKEKNAKEELIRWEEGKKWQAKIEGIRNKLKEKEGEVFTLTKQLNTLKDLFAKADKEKLTLQRKLKT
